This data set in a line: soluble fraction after stress (log2 fold change); higher = more stays soluble; pooled small domains, quantitative proteomics. Conditions: stress: 50 degC. In short, it runs like this:
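After stress at 50°C, the amount of each protein still soluble was measured. This was done on pooled custom libraries of small protein domains, using high-throughput quantitative proteomics. The figure given is a base-two log fold change and stands for aggregation propensity, with higher values meaning more protein stays in solution.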
“HMWMTAQDFRNSSLPWSATTSYNEGQSVRVVDGSNTYYYIAIVKTQPGQSPTTHPTSWREVDA”: the “soluble fraction (log2)” value is -0.99.

“HMVARPVLQIGSTGADVTAIQARLGVSQTGYFGVLTAAAVTNFQRSNGIAASGKVGATTWAKLMQSA”: the “soluble fraction (log2)” value is -1.14. “HMGEIHAQIPGLVSHLFVKEGNTVQVEQKLFILEAMKMENEIDSPIQGTVKRIHIATGSKVEKGDLIMEIS”: the “soluble fraction (log2)” value is -0.505. In the case of “HMKQQFTREQIIELMYKAYKKHKKKLNRVEIKKEKALPSYVTIGRYLNETSIKKIWEIVLSEKE” it was -0.43; in that of “HMGVREIIVQFLEQFDKPKSVQEIVEYVLRYRNTTENSIRSTMYSGSQFRQFDNGYFGLSDKSYPNEYIYA”, -0.603; in that of “HMLDSNILTLIKELKIRHHFTATQTHQLEKVIQQAHALGLDNSEIRSLANSSPSAKSLINDLNQKLEPLRL”, -0.398. Consider “HMTFAPTAIPSLTRPMEELMSWSFTPNEAFILSRINGLWDVRSIAKISPFPEGEVLRVFEKLHDGGLIRW”, for which the “soluble fraction (log2)” value was -2.92. As to “HMDENDPYEILEIDRLASDDQVKAKYRALIRENHPDVLMAKGVPQEFIDLANRKMAVINAAYDRIEKEREF”, the “soluble fraction (log2)” value was -0.0184.

As for “HMGNYEEAILAFEAAIKIDPKNADAYRKLAEAYEKTGDEDAALRTLETGAEATGDRELADLAEKKRQELDA”, the “soluble fraction (log2)” value was 0.169.

Consider “HMNKMIIELGEKLKALRTENHLRQDQVARLVNVEKSSISMYETGMRQPSYTTLVRLADVFNVTTDYLLGRK”, for which the “soluble fraction (log2)” value is -2.24. In the case of “HMPFTLDGVNEGSRNDQAARMSGYLISKNLNMDFIKFFMQSWNRQNSPPLSQREINSVVDNVKRTHDRKNK” it was -1.18.

As to “HMEKPTRNKLVEIIIQNKNVTTEQMANLLNISRRAVAKHIKKLQEEGIIRRIGPDFGGHWEIVK”, the “soluble fraction (log2)” value worked out at 0.0258. Under “HMKTGIGIVEANGGLRLRSQASTSSDVLSTAHNGDNVVVIRQVGNWYLVNYNLKIGYMHSDYITFKE” stands -4.82; under “HMRGWGTVKRRTPKSGRYRASYIGPDGKRYAADHTYAAKVDADAWLSSERALITAGVWTPPTDRVT”, -0.286; under “HMNSKSFIFHIEDEEGIRLDVFLADNLPDVSRSYVQKLIDEEHVKVNGQSAKSRLKTVSGMEITVDVPAPK”, -0.321.

With “HMSNIIGNTAYSAIPDKQYFRLKSETAEKVANYLTENNIPFSGRINGDKTTLTIGQKNVDDYKAAVATVTG”, the “soluble fraction (log2)” value was found to be 0.0593. In the case of “HMTKSIDFDFREDGVYIKADKDVTIVDIVTKIDLRRIQSVDLTKIKQMLEIGSLDNWIKIAEPQMEK”, the “soluble fraction (log2)” value was 0.0472.

In the case of “HMHVYSYPAAVKIKNAVGREMMVTLLGRSGTHVQFARQDGEEFVYPISSLDLAAQTLISKYPNDGIKN”, the “soluble fraction (log2)” value was -0.444. In the case of “HMVDETDVPTFTDMTLEEAQNEAKQRNLKLEITESPSDKEKDTILEQDPEPGKTVASGSTVKLTVSNGEE” it was -0.14; in that of “HMRSYTPGSAFRLSSVPVYNAETGPSIGVRSGTYYIHSLPVSNGRIRMTNLISRVGKPGQVSFWVEISR”, -2.45.

With “HMPASVEYIRLAAEQMTGQQVTIIEQPGNYAFILRIHLNDIYSLDLAALRARIDELKPAHLTYTVEQYD”, the “soluble fraction (log2)” value was -2.71.

Regarding “HMTIAFPSNDVDAVVGYFESRGFDRTASISTATVILQQAKIDGVKVFELIDTLQGMDKVQLSYIVTEILN”, the “soluble fraction (log2)” value was 0.03. In the case of “HMITSELALVKLVVKGANRVEALRVAETFRARALDVTLSSFVFELTGKPSKLDAFIGLMRSLGDTEILKR” it was -4.06. Under “HMKGMIKVASMSLGADLGLYSRHLKYLGIVHRVVEESGGQSVYIQKLNDLHTAKESLELYLKNELKI” stands -1.19. Under “HMKITFNPVSSGRLDIILAEKTGYTRSYVKQLVEKQAVTINGEAAKKSGQNVKAGDEIALDEP” stands 0.0957; under “HMGTSFKITFYKDAFQVDDGPIRMLNDPANQKFVDEVSQGYAPKELIGQGGKAPEIDIIDKRSENAPT”, 0.128. “HMEFQSIGGKIRIGREREHLTQAELAQKLSVTRQAVSNWERDKTLPDIYMIREIAEIFGLTLDEFMEGAKK”: the “soluble fraction (log2)” value is -0.672. On to “HMTEQLTLVGKTGVTTTDLRPSGKVEVDGKRYDAVADNGAFISKGAHIKVVRYVTGQVYVVPTD”, for which the “soluble fraction (log2)” value came to 0.0883. Under “HMADASVTAYFKIAEDRLQGRLPDTFSEASLKARYQLTPAQLTAVLTRIAQEGWAERKPGYGWAFSSML” stands -1.4; under “HMRLREETRKVDKTGLIQVDGRHYRVPDEYSQKDVQILMDDNSIMVYRKGDFVIELDKETSVYMPH”, 0.214. Under “HMLSTQEYIKKNIENGSWKVGEKIPSENNLTEILGVSRASIRVAIQQFIALDVLNSIHGKGTFVKTNNIMG” stands 0.256; under “HMTRQPSAKEHAVLTAVKEGLRRDGRAPTVRALADMTGAASTSTVQRRISALIDLGLLRRTDGTLEVVE”, -0.000402; under “HMDKATMRWEQIEKFLETHPYIMNADVRALFNVSAATANRILATLTTEGKLVKYREGGHWAYKY”, -0.544. Under “HMIKLIKKDTNISELKMSKMPWDVMLYGKPYQVVSIKGYVHTIGGRRGENDLWMYPRDESPTYENLIEFQ” stands -2.61; under “HMEIDDPWLILGINAGSSIEIAQKAWKDLASQNHPDKLIANGVPKELLGMANEKLAIINGAYDKILKAHKI”, -0.262. With “HMIINKFERRKEIQIQFNNQERIKFKDFFLNLSKENIIVSFLILLELVRESLIDFSGTNENDIEFFIK”, the “soluble fraction (log2)” value is -2.3. In the case of “HMNYTQAQIDRANAVSLEDFLRTQGETLIKSGREYRWKEHDSLTVRGNKWFRHSQSKGGYPIDFVMEFTA” it was 0.0368; in that of “HMIDAKTTLQELTQKSGKKPEYRLIKIEGPDHLRRFTVEVFIDGQSMGTGTGHSKKEAEQNAANFALKNLQ”, 0.0235; in that of “HMKTVKPSQIPYSEFLKLVETDKINDVSMVGRNIIGHLDDGSKFKTYTPPNDPTLIEKLSSHNIVINAAPE”, 0.149.

As to “HMEGTAAAVALKGLMEQSGVDLREVMAAVESRGYYPKGTPFENYDPAFVSGVLVGAWDQVYKMILDQRPIP”, the “soluble fraction (log2)” value was -0.217.

For “HMLFGKKYLGKVPNDASGRISLWNDIVKHHQELQNIRAIENFTSDNVTVAQGDTKKAVVVTDYVT”, the “soluble fraction (log2)” value was -0.0557. Under “HMAPQAETLLRQVMALPSKDRAVLYLHYYEGFSTREVGDMLHISQSAVTTRLLRARKKLKEIL” stands 0.0889. Under “HMNVEQQNQARENIKRLMEEQGLSQPKLSEKAGIAFGTLSRILRGKQDLTIQTAEKIADALGLSVYDLAE” stands 0.281. In the case of “HMSEPTLESLRAEGAHHYDPARFHYLEVLARRMPGQHAAVQQVLASRLREAVAAYAGRRSLI” it was -0.126; in that of “HMDQFMLQSAWLRAVQHVMKHTDDVGTQFAEEARRMHYGEADERPIRGQATSDEARALHDEGIEVMALPI”, -0.303; in that of “HMSIGLEGFVGKLGISTSDLRPSGWGEFDAKKLFVVTEGEFVDRKEKIEILSVDGNRILVRKIS”, -0.751.

Turning to “HMETGNEDYRVGKELAYDGNYKAATIYLMKSIKDDPNNPDAFNMLGFSHRKLGNNDEAYIYYNKALEL”, the “soluble fraction (log2)” value was -0.387.

For the sequence “HMIMNLNVLANNVRRLRTAQRLSQSALASKAGLSVPAIKNLENARNEPRVNTVQVIAHALEVRLQDLFAPT”, the “soluble fraction (log2)” value was -1.62. Under “HMNETRVDQAADLLLALLEKEPKSAAEILDEFEQAGFSKSGLYRAKDALGVVSIRKEGRWVWSLPHSLD” stands -0.104; under “HMKVKIFNGMKLVTNSTGLTVDGKPAALDESNADAKTYSQGLYVFIVYQSGKIAVMQDGKFLGYA”, -1.77; under “HMSNSGFVKNNGKTEFYDASGRQAKSSWINISGKWYYFDLNGTMVTGWQRISNKWYYFLEDGSK”, 0.0383. For “HMSKKMTNEEILNFLKKVLIKHGKISGFIIDEDDNGPSSSVVASRFGGLLNAYKLINYTPER”, the “soluble fraction (log2)” value is -0.506. Under “HMQHYQFEVDEASSKKRLDVFLSENLPEISRSRLKKLIDEKRVTVNEMSRPAGYKVRVKEKIEFHIPPL” stands -0.402; under “HMFLSSEERRERIIEVLRQQDEVTVVELSHRLGVSEVTTRKDLQQLEEQGYLTRVRGGAVVSGRGQL”, -0.0183; under “HMGDTHKVPGVKGVNVEQAMDMLSRLDLKAVVIDSVYVKDKKLGTVIEQNPVEGSVVKPGRPIYLVVNSRS”, 0.242. As to “HMDDDAELLLKKLSAAGGELPFHDRSEPAEIEAAFGLSKSAFKRALGKLLKAGKVVKTQQGIQLK”, the “soluble fraction (log2)” value stood at 0.0395. Under “HMSREEFLTELRKALQGRVSQQTVNDNLRYYEEYILTESHKGKTEAEVIAELGNPRLLAKSIIDAENAT” stands 0.107; under “HMSTLSIHIPDKFAGQRLDQALAELYSQFSRSRLQQWLNDGELLVDGKSVKANKKVLGGEFIQILK”, -0.861. Under “HMDGVPPAGSRIRLTVSTQVGDKEFEGTLVPPAGVDLLTLKLANGYNLSHSIADVREVVLIEEGLQGEEP” stands -0.0515.

As to “HMLAKRYLVYGSGSLNSAYPDTKNIAYGIDSGKGFFLVGILTENEASKLKLKGYYVIEDFPLDFH”, the “soluble fraction (log2)” value is -1.43.

On to “HMIKISDYLSEEDLNFIKEMEKIYPYFDFDSEGNLILTKSIDELKDKYGFDEAFVSRLDTVLNSR”, for which the “soluble fraction (log2)” value came out at 0.0178. Consider “HMTKQIILVHVAGKVKKPDVYPLLQGSRVADAIKAAGGAKKGVELNDINLARVLIDGEQVFVGYVPE”, for which the “soluble fraction (log2)” value is -1.58. With “HMGAYPENSLLKERGQSAVYLIQENRKRLFFNAEAFLINGYNWKDIQVVDDLSKILTGKVIYAK”, the “soluble fraction (log2)” value is -2.76. With “HMIEQIELEARVPDELGGQRLDQVAAQMFDDFSRSRLTGWIRDGSLTADGQQLRPRDIVYGGTLLQLKAEQ”, the “soluble fraction (log2)” value worked out at 0.00374.

Consider “HMSDSISLTLNGDLRRFRAHATIADLVRDIGLDPVKVAVERNLEIVSRSTLEDVVLADGDRLEIVHFV”, for which the “soluble fraction (log2)” value was -1.33. In the case of “HMIGERIKRARAAAGLSMQALGKQVGISANMVKKYEHDQSMPSSGVLLKLATALSVRTEYFFRPA” it was -1.28; in that of “HMKQLNKRQDDILSLAEKEGYVSVENLAKTFTVSQQTIRRDINYLSDHEFLVRTHGGAFYSSG”, 0.00837; in that of “HMRHLSVPSQDTQQVLQRLKVELALPEGARVRSDPSDPGRRLIPFTESVPQEMIDQYPVVSINI”, 0.0489.
